Data from the supplement of paper PMC10724198.
± gives the standard deviation of the averaged measurements.

Assays:
[1] = test system: Saccharomyces cerevisiae; assay: protein stability index of tFT-peptide fusion in wild type (PSI (0-1 scale)); higher = more stable (slower turnover); conditions: genetic background: wild type
Procedure: (§1)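 MPS profiling in S. cerevisiae of two library types built from selected 12-aa C-degron peptides (IN1, IN2, LN1, LN3, VN2, R1-R5, W1-W3, Atg1 and Rpa12 C-termini): saturation mutagenesis libraries and C-terminal +1 capping libraries (13 aa). Each peptide is fused to the C-terminus of a sfGFP-mCherry timer, after a GGGS linker. Cells are FACS-sorted into 8 mCherry/sfGFP bins and sequenced. PSI runs from 0 (unstable) to 1 (stable), measured once in wild type and in the das1Δ or doa10Δ background.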

[2] = test system: Saccharomyces cerevisiae; assay: protein stability index of tFT-peptide fusion in deletion strain of DAS1 (PSI (0-1 scale)); higher = more stable (slower turnover)
Procedure: as §1

[3] = test system: Saccharomyces cerevisiae; assay: protein stability index of tFT-peptide fusion (C-terminal peptide) (PSI (0-1 scale)); higher = more stable (slower turnover); conditions: temperature: 30 C
Procedure: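 MPS profiling in S. cerevisiae of the yeast C-terminome library: the last 12 aa of each annotated ORF are fused to the C-terminus of a sfGFP-mCherry timer, after a GGGS linker. Cells are FACS-sorted into 8 mCherry/sfGFP bins and deep-sequenced. PSI runs from 0 (unstable) to 1 (stable); wild type and das1Δ backgrounds, two technical replicates each.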

[4] = genetic background: das1 deletion
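For protein stability index of tFT-peptide fusion in deletion strain of DAS1 in this document: PSI is a weighted mean of each variant's read distribution over the sorted stability bins, computed only for variants having over 10 reads in total.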
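For protein stability index of tFT-peptide fusion in wild type in this document: PSI derived as read-weighted mean over the 8 sorting bins, only variants exceeding 10 total reads kept, mCherry placed adjacent to the peptide and sfGFP distal.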

Sequence | protein stability index [1] | protein stability index [2] | protein stability index [3, 4] | protein stability index ([3]; genetic background: wild type)
PSLAASFYRVVG | 0.625 | 0.689 |  | 
ARWREGLWRGAS | 0.673 | 0.695 |  | 
VRGAVGGTRLVG | 0.63 | 0.673 |  | 
AMWRVGLWRGAS | 0.43 | 0.65 |  | 
LVVYLSCVACINC | 0.0649 | 0.0918 |  | 
LVVYLFCVACIN | 0.0137 | 0.0277 |  | 
PSLAASFWAVVG | 0.601 | 0.686 |  | 
LKILRQKMNHCN | 0.191 | 0.669 |  | 
RLIQPLPVQFLNH | 0.646 | 0.661 |  | 
FSMVWTFRYWVN | 0.0843 | 0.314 |  | 
FSMRWTKRYWVN | 0.0745 | 0.545 |  | 
ARWRVGLWRGASE | 0.663 | 0.666 |  | 
PDKRNHLIKLLNF | 0.176 | 0.67 |  | 
LVVYLVCVACIN | 0.0125 | 0.0307 |  | 
FSQRWTFRYWVN | 0.0417 | 0.563 |  | 
LKILRQKMNPQN | 0.689 | 0.677 |  | 
LVVYLSCDACIN | 0.144 | 0.191 |  | 
EAQTSRAKNELS [PHD1 C-terminal 12 aa] |  |  | 0.6855 ± 0.004 | 0.575 ± 0.011
FEHFHCVLDQIL [YDR203W C-terminal 12 aa] |  |  | 0.7056 ± 0.0043 | 0.6954 ± 0.0031
RAEVAALAAENK [PFK1 C-terminal 12 aa] |  |  | 0.6903 ± 0.0045 | 0.6608 ± 0.0054
YVSHKGFIVEDM [RPL9B C-terminal 12 aa] |  |  | 0.695 ± 0.0088 | 0.6932 ± 0.006
NFVSQYRNDEIY [YOR381W-A C-terminal 12 aa] |  |  | 0.688 ± 0.032 | 0.659 ± 0.023
KTSSKGNARTLL [FMP49 C-terminal 12 aa] |  |  | 0.698 ± 0.025 | 0.709 ± 0.0091
YNKICSLASRVI [MRPL38 C-terminal 12 aa] |  |  | 0.669 ± 0.0074 | 0.673 ± 0.017
IGIGFGVGIIRE [BUD9 C-terminal 12 aa] |  |  | 0.698 ± 0.052 | 0.686 ± 0.036

Sequence | protein stability index [1] | protein stability index [2] | protein stability index [3, 4] | protein stability index ([3]; genetic background: wild type)
SSWISKHSSVTD [YDL109C C-terminal 12 aa] |  |  | 0.696 ± 0.0068 | 0.6859 ± 0.002
LEKSTNPIKKNN [VOA1 C-terminal 12 aa] |  |  | 0.703 ± 0.023 | 0.765 ± 0.038
KICEVAARQKWI [AAN1 C-terminal 12 aa] |  |  | 0.6888 ± 0.0048 | 0.627 ± 0.02
MTLDSWQPLTPK [INP53 C-terminal 12 aa] |  |  | 0.723 ± 0.016 | 0.712 ± 0.03
AVKYLYRQIVRN [EFM2 C-terminal 12 aa] |  |  | 0.6832 ± 0.0033 | 0.6213 ± 0.0041
IQYYEEILRRGL [SPP1 C-terminal 12 aa] |  |  | 0.683 ± 0.024 | 0.677 ± 0.027
LLFGDEVVACKD [YDL172C C-terminal 12 aa] |  |  | 0.722 ± 0.017 | 0.691 ± 0.011
AHYNNGLQWFSD [EMC4 C-terminal 12 aa] |  |  | 0.7084 ± 0.0065 | 0.728 ± 0.014
AFKRKKQELGVN [QDR2 C-terminal 12 aa] |  |  | 0.671 ± 0.013 | 0.697 ± 0.089
IPSIGKPKTIKI [BUD17 C-terminal 12 aa] |  |  | 0.672 ± 0.015 | 0.7017 ± 0.0033
RPFEIASFRLYF [AMS1 C-terminal 12 aa] |  |  | 0.703 ± 0.026 | 0.683 ± 0.016
PLGEVDLNSFKN [YHP1 C-terminal 12 aa] |  |  | 0.691 ± 0.019 | 0.682 ± 0.034
FKELLGYTLVSA [VSB1 C-terminal 12 aa] |  |  | 0.356 ± 0.03 | 0.391 ± 0.0093
EYNLDTFIKTLR [MOT1 C-terminal 12 aa] |  |  | 0.7535 ± 0.0064 | 0.6883 ± 0.0023
PAAISGTVPSIF [DIN7 C-terminal 12 aa] |  |  | 0.715 ± 0.021 | 0.677 ± 0.017
KLYNYLLSIEVY [YLR123C C-terminal 12 aa] |  |  | 0.144 ± 0.013 | 0.191 ± 0.0098
KKGRQERKLANR [PPZ2 C-terminal 12 aa] |  |  | 0.689 ± 0.026 | 0.683 ± 0.029
KFLRYNPLEKRD [RPB10 C-terminal 12 aa] |  |  | 0.693 ± 0.012 | 0.704 ± 0.02
KKGLLHKLKKKL [IST2 C-terminal 12 aa] |  |  | 0.7257 ± 0.0041 | 0.668 ± 0.045
VVEKVSSITNRN [SRF1 C-terminal 12 aa] |  |  | 0.6869 ± 0.0056 | 0.669 ± 0.065
KKNRSGLRHSES [SQS1 C-terminal 12 aa] |  |  | 0.683 ± 0.011 | 0.6606 ± 0.0038
VKDLYKRLTIQA [GPI1 C-terminal 12 aa] |  |  | 0.518 ± 0.018 | 0.0975 ± 0.0091
LIVSYCASVAFG [ATG12 C-terminal 12 aa] |  |  | 0.366 ± 0.013 | 0.382 ± 0.0029
ELIEKLKEVKAI [CIR1 C-terminal 12 aa] |  |  | 0.686 ± 0.018 | 0.34 ± 0.013
